Data: IntAct's records for PubMed 15652484

Target: erp44_mouse Erp44 (UniProt Q9D1Q6)
Sequence (Q9D1Q6 whole entry): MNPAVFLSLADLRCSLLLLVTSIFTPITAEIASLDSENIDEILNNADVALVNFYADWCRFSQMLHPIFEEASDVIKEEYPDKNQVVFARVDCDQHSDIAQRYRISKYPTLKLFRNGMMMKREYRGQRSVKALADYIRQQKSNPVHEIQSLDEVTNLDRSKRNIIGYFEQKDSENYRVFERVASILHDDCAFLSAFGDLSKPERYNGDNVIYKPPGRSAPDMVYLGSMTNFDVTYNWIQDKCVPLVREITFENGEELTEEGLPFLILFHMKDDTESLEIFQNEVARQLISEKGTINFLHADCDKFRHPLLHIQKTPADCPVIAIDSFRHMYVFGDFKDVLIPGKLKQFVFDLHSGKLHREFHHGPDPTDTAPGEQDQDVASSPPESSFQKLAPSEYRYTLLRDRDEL

Inositol 1,4,5-trisphosphate-gated calcium channel ITPR1 (Mus musculus), P11881 C2504S, sequence (P11881 whole entry C2504S): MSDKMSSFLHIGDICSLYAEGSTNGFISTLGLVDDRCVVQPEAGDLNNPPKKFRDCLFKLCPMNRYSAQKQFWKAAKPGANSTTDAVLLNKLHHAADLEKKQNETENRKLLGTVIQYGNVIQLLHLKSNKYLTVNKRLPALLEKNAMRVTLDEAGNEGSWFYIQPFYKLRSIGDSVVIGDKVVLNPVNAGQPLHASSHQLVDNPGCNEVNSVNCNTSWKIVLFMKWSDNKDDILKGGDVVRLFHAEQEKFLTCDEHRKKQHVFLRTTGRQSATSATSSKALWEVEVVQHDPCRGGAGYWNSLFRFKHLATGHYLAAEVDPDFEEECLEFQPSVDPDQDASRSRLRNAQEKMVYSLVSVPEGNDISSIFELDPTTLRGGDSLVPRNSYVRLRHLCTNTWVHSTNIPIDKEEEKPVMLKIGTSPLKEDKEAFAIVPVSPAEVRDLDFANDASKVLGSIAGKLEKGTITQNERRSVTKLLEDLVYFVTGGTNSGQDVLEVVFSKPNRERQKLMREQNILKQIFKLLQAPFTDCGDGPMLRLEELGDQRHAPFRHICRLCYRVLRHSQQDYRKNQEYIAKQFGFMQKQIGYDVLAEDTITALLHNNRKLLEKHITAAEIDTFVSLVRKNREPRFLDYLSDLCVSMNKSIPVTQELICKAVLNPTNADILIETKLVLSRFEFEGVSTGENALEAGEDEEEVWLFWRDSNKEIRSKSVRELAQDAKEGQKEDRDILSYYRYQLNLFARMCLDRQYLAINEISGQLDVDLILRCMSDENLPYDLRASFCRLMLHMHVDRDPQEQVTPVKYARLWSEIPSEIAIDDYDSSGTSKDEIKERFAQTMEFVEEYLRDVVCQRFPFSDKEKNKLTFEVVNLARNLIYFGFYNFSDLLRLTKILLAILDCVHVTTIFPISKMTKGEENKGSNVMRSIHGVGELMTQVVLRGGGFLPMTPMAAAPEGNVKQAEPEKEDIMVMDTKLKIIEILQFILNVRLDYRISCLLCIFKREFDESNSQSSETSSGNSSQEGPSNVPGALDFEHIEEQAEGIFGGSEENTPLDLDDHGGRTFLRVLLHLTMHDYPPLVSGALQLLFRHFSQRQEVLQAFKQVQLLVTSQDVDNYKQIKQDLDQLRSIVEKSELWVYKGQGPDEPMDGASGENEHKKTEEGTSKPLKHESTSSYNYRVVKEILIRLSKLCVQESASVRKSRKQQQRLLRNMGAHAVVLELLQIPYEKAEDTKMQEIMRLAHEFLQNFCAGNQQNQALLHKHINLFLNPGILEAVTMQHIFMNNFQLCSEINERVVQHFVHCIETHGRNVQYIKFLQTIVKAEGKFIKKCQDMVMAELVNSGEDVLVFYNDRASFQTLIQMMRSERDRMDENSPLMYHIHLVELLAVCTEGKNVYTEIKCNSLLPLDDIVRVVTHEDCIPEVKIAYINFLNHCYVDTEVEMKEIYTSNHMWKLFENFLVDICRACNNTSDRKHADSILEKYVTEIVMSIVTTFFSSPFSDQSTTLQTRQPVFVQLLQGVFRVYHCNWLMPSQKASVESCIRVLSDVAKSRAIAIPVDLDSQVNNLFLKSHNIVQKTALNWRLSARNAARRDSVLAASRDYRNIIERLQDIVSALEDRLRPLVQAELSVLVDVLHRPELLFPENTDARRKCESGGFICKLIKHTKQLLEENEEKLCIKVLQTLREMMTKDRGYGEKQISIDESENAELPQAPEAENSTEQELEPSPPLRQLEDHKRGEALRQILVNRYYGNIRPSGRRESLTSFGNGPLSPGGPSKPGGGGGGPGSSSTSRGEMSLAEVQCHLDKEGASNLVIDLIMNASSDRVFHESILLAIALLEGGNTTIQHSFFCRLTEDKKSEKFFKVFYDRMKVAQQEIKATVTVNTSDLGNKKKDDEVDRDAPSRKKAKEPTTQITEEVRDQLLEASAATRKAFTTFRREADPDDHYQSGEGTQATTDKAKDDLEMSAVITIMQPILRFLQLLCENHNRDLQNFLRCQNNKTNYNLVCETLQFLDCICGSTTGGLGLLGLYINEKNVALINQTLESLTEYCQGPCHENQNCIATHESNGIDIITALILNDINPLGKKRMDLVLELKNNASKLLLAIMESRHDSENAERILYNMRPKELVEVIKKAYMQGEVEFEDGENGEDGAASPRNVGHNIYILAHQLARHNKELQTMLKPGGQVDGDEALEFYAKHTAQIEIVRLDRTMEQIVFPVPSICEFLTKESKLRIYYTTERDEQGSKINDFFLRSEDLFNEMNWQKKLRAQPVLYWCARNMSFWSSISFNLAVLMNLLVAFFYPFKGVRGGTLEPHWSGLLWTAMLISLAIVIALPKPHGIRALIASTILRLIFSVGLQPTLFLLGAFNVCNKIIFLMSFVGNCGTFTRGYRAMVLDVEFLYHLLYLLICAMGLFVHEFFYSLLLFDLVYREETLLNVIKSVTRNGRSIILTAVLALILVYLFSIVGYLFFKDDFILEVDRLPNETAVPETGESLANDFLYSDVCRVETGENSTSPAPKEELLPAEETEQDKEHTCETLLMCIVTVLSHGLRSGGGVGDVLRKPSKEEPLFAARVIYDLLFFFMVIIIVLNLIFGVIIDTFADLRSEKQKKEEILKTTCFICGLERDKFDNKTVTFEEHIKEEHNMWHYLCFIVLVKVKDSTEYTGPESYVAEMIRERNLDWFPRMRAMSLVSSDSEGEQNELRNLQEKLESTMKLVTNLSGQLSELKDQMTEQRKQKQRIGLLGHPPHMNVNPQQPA

effect of a mutation on the interaction	Substance
decreasing interaction	Inositol 1,4,5-trisphosphate-gated calcium channel ITPR1 (Mus musculus), P11881 C2496S
decreasing interaction	Inositol 1,4,5-trisphosphate-gated calcium channel ITPR1 (Mus musculus), P11881 C2504S
